The text below walks through data of patent CN116715769A (dated 2023).

In assay [1] the target is T1, human HVEM (human, UniProt Q92956).
T1 chain: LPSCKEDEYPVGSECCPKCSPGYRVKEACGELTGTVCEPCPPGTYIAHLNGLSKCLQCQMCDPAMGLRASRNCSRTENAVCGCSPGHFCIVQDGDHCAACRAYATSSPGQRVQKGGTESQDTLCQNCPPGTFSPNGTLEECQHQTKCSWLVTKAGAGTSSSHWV
The experiment in a line: SPR.

Assay [2] concerns the target T2, mouse HVEM (mouse, UniProt Q80WM9).
T2 chain: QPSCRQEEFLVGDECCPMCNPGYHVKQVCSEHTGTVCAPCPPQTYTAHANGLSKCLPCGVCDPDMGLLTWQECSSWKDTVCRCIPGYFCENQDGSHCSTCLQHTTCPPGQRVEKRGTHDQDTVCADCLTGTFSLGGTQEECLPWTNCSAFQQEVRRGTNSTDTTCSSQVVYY
Put plainly: ELISA. For orientation: An ELISA detects its analyte on a solid surface through an enzyme-linked reagent.

As a reminder, the Kd is the free concentration of one partner at which half of the binding sites on the other are occupied at equilibrium, for simple one-to-one binding. Low values mean higher affinity, high ones lower affinity.

B1: 52B7 (protein)
chain 1: QVQLKQSGPGLVQPSQSLSITCTVSGFSLTIYGVHWIRQSPGKGLEWLGVIWTGGNTDYNAAFMSRLSITKDNSKSQVFF
chain 2: EIVLTQSPALMAASPGEKVTITCSVSSNISSGNLHWYQQKSETSPKPWIYGTSNLASGVPVRFSGSRSGTSYSLTISSME
B1: in assay [1], the Kd turned out to be 0.705 pM. In assay [2], the binding result was “no binding”.

B2: 26C3 (protein)
chain 1: QVQLQQPGSELVRPGASVKLSCKASGYTFTSYWMHWVKQRPGQGLEWIGDIYPGSDGTNYDEKFKSKATLTVDTSSSTAY
chain 2: DIQMTQTTSSLSASLGDRVTISCRASQDISNSLNWYQQKPDGTVKLLIYYTSRLHSGVPSRFSGSGSGTDYSLTISNLE
For B2, in assay [2], the binding result is “no binding”.

B3: 22G5 (protein)
chain 1: EVQLQESGGGLVQPGGSRKLSCAASGFTFSSFGMHWVRQAPEKGLEWVAFISSGSSSIYYADTVKGRFTISRDNPRNTL
chain 2: DVVMTQTPLSLPVSLGDQASISCRSSQSLVHSNGNTYFHWYLQKPGQSPKLLIYKVSNRFSGVPDRFSGSGSGTDFTLKI
Turning to B3, the binding result in assay [2] is listed as “no binding”.
